In patent US7164008B2, “Isolated complexes of endotoxin and MD-2” (priority 2003, dated 2007):

Test system: MD-2
Experiment: Formation of [^14C]-LOS-MD-2 complex monitored by gel filtration chromatography
Format: binding, human
Conditions: 30 min, 37° C., Sephacryl S100
Procedure: In FIG. 2, a bioactive complex (Mr˜25,000) containing MD-2 and [^14C]-LOS is formed by incubation of [^14C]-LOS-sCD14 with wt, but not C95Y, MD-2. In FIG. 2A, dialyzed control insect cell medium (◯) or medium containing wt (♦) or C95Y ( ? ) MD-2 was incubated for 30 min, 37° C. with (1:1 vol/vol) [^14C]-LOS-sCD14 in HBSS+, 10 mM HEPES and chromatographed on Sephacryl S100. Column fractions were analyzed for [^14C]-LOS. Identical results were obtained in analytical (5 ng [^14C]-LOS/ml+200 μl culture medium) or more preparative runs (reagents concentrated 20×). […] Cell activation was measured by IL-8 accumulation. […]
Purified [^14C]-LOSagg or [^14C]-LOS-sCD14 (3 ng LOS/ml)+/−indicated proteins (30 ng/ml LBP, 250 ng/ml sCD14, 60 μl culture medium) were incubated at 37° C. for 30 min. After this incubation, samples were analyzed by gel filtration chromatography to monitor formation of [^14C]-LOS-MD-2 and by incubation with HEK/TLR4 cells to measure cell activation.
Columns of Sephacryl HR S200 (1.6 cm×30 cm) or S100 (1.0 cm×60 cm) were pre-equilibrated in 10 mM HEPES, HBSS^++/−0.1% HSA. […] Aliquots of the collected fractions were analyzed by liquid scintillation spectroscopy using a Beckman LS liquid scintillation counter to detect [^14C]-LOS. […]

B1: wt MD-2: soluble polyhistidine-tagged recombinant wild-type MD-2 in conditioned insect cell culture medium (protein)
chain: QKQYWVCNSSDASISYTYCDKMQYPISINVNPCIELKRSKGLLHIFYIPRRDLKQLYFNLYITVNTMNLPKRKEVICRGSDDDYSFCRALKGETVNTTISFSFKGIKFSKGKYKCVVEAISGSPEEMLFCLEFVILHQPNSNHHHHHH
B1 was tested, and the “reaction with [^14C]-LOS-sCD14 to generate new Mr˜25,000 [^14C]-LOS-containing complex” value was “efficiently generated”.
